According to article PMC4070910, “Cathepsin S Signals via PAR2 and Generates a Novel Tethered Ligand Receptor Agonist” (PLoS ONE, 2014):
Read-outs that look alike come from different tables or passages of the source.

B1: papain: plant protease (protein, UniProt P00784 134-345, looked up)
Papain: IPEYVDWRQKGAVTPVKNQGSCGSCWAFSAVVTIEGIIKIRTGNLNEYSEQELLDCDRRSYGCNGGYPWSALQLVAQYGIHYRNTYPYEGVQRYCRSREKGPYAAKTDGVRQVQPYNEGALLYSIANQPVSVVLEAAGKDFQLYRGGIFVGPCGNKVDHAVAAVGYGPNYILIKNSWGTGWGENGYIRIKRGTGNSYGVCGLYTSSFYPVKN
B2: der p 1: dust mite allergen (protein, UniProt P08176 99-320, looked up)
Peptidase 1: TNACSINGNAPAEIDLRQMRTVTPIRMQGGCGSCWAFSGVAATESAYLAYRNQSLDLAEQELVDCASQHGCHGDTIPRGIEYIQHNGVVQESYYRYVAREQSCRRPNAQRFGISNYCQIYPPNVNKIREALAQTHSAIAVIIGIKDLDAFRHYDGRTIIQRDNGYQPNYHAVNIVGYSNAQGVDYWIVRNSWDTNWGDNGYGYFAANIDLMMIEEYPYVVIL

What was measured:
human PAR2 = assay: Fura-2 calcium imaging in HeLa cells transfected with PAR2 cDNA; format: cell-based; settings: PAR2-transfected HeLa; KVDGTS 100 µM, cathepsin S 2 µM, papain 2 µM, trypsin 10 nM; second agent after up to 60 minutes; room temperature
Method: Human PAR2 cDNA was cloned as an Xho I-Hind III fragment (1206 bp) into pcDNA3.1(−). 10 µg of DNA were diluted into 0.5 ml of DMEM and mixed with 0.5 ml of DMEM containing 10 µl of Lipofectamine 2000 transfection reagent and incubated at room temperature for 20 minutes. HeLa cells were grown to confluence, trypsinized and 1×10^6 cells were pelleted in a 15 ml tube by centrifugation at 1000 rpm for 5 minutes. The DMEM-Lipofectamine 2000-DNA mixture (1 ml) was added to the cell pellet, resuspended gently and incubated at room temperature for 20 minutes. Four ml of complete DMEM with 10% FBS were added to the tube, mixed by inverting the tube several times, plated into a 96-well glass bottom plate at 20,000 cells/well, and placed in a 37°C CO2 incubator. HeLa cells transfected with vector alone or salmon sperm DNA (shown in the figures) were plated as a control. The medium was aspirated two days after transfection. Fura-2 was used as a ratiometric calcium-sensitive indicator as follows. 100 µl of complete DMEM containing 2 µM of Fura-2 were added to each well and left at room temperature in the dark for 1 hr. Following loading with Fura-2, the medium was aspirated and replaced with 90 µl of HEPES-buffered saline (20 mM HEPES, 115 mM NaCl, 5.4 mM KCl, 2 mM CaCl2, 0.8 mM MgCl2, 13.8 mM glucose, pH 7.4).
Imaging was performed using a Zeiss Axiovert 200 M microscope platform equipped with a flipping filter wheel for ratiometric imaging. Axiovision software, version 4.6 was used for image analysis of the cells which were excited at 340 nm and 380 nm. Ten µl of peptide agonist were added at 20 seconds after the start of the excitation procedure. Images were taken every 5 seconds, including at zero time, during a 3-minute period or longer if required. The software later analyzed all images taken during each excitation period. Typically, ratiometric changes were measured in 10–20 cells in each image. An average of the fluorescence of the cells in each image was calculated and plotted against time in seconds.
HeLa cells transfected with PAR2 cDNA were subjected to ratiometric imaging as described above with PAR2 peptides, SLIGRL, KVDGTS, and SLIGKVDGTS in addition to the reverse peptides LRGILS and STGDVK at concentrations from 1 nM - 1 mM. Each of the concentration-dependent readings was performed in triplicate. Maximum intensities at each of the dilutions were calculated and plotted against concentration using GraphPad/PRISM software version 6.0 (Irvine, CA). Error bars represent +/−SEM.

PAR2 = settings: in vitro, cited from earlier work
Source text: PAR2 signaling has been implicated in the development of inflammatory and bowel diseases, asthma, itch and pain. The receptor is expressed on many types of cells including keratinocytes, sensory neurons, fibroblasts, endothelial cells, and inflammatory cells, [3]. Consistent with this broad expression, PAR2 is involved in numerous physiologic and pathophysiologic processes in response to both endogenous and exogenous proteases.

Molecule	effect as first agent on calcium response to second agent (in words) (human PAR2)	PAR2 activation (in words) (PAR2; plant proteases)	PAR2 activation (in words) (PAR2; dust mite allergen)
B1	failed to induce a calcium response at any time up to 60 minutes	supporting activation	
B2			supporting activation
